Reference: publication PMC4938498, “Molecular, Biochemical, and Dietary Regulation Features of α-Amylase in a Carnivorous Crustacean, the Spiny Lobster Panulirus argus” (PLoS ONE, 2016)

Substrate: O=[N+]([O-])c1ccc(O[C@H]2O[C@H](CO)[C@@H](O[C@H]3O[C@H](CO)[C@@H](O[C@H]4O[C@H](CO)[C@@H](O)[C@H](O)[C@H]4O)[C@H](O)[C@H]3O)[C@H](O)[C@H]2O)c(Cl)c1
Assay: purified protein
Assay type: biochemical, Panulirus argus
Details: 50 mM MES pH 5.5, 0.3 M NaCl, 25 mM CaCl2, 37°C

B1: lobster α-amylase (PaAmy) (Panulirus argus) (protein)
chain: QWDPHVTNGQAIVHLFEWRWSDIASECENFLGPRGYGGVQVSPPNENVVVYQDEKSRPWWERYQPVSYKIATRSGDEASFKDMVNRCNNAGVRIYVDAVINHMSGWWPTGTAATGGSTFDAGAESYPAVPYSAFDFNDANCHTASGTIEDYGDAEQVRNCKLVGLNDLNQGTDYVRGKIRDYLNTLTSWGVAGFRVDATKHMWPGDLKAIFDSLDDLSPHYFDAGSRPFIFQEVIDLGGEPITSSQYVGNGRVTEFKYGKSLGESFNGNNPLKWFSTFGESWGMVDRGNAVVFIDNHDNQRTGGDMILTFRSSKWYKMANAYMLAWPYGFPRVMSSFYWDQWWENGHDKNDWTGPPHDGSYNIVGPTFNPDDSCGNGWICEHRWRQIYNMVQFRNVAHGTDMNDWWDNGSNQISFCRGDRGFIAINNDPWDMKESRQTCLSSGTYCDVISGSKIQGSCTGKTVTVNADGFAYIEILNSEEDGVLAIHRDSKL
notes: native, purified from digestive gland pool; mature enzyme after 21-residue signal peptide (cleavage A21/Q22 predicted); precursor 513 residues; N-glycosylation N429 predicted
Km: 360 ± 52 µM
kcat: 28.42 ± 1.203 s⁻¹
